5 molecules from patent US20070021593A1 can be followed below.

What is called IC50 is the concentration needed to halve the response being measured.

Assay [1] deals with CXCL8 receptors on bovine peripheral blood neutrophils. Kind of assay: competition with 20 pM 125I-CXCL8 on 10^6 bovine neutrophils, 45 min on ice.
Assay [2] shares this target. The experiment in a line: biotCXCL8 binding inhibition on bovine neutrophils; 10 ng/ml unlabeled CXCL8 2 h at 4 C, wash, then 1 ug/ml biotCXCL8; ELISA read-out. Background: In an ELISA, binding on a coated surface is turned into a signal by an enzyme label.
Assay [3] has the same target. Kind of assay: preliminary radioligand binding on bovine neutrophils.
The target is the same in assay [4]. The experiment in a line: biotCXCL8 (1000 ng/ml) on medium-treated bovine neutrophils; alkaline phosphatase-streptavidin and ABTS.
For assay [5] the target is unchanged. Kind of assay: cell-based or functional assay.
Assay [6] shares this target. The experiment in a line: competition with 20 pM 125I-CXCL8 on bovine neutrophils; reference wildtype CXCL8.
Assay [7] has the same target. The experiment in a line: biotCXCL8 binding inhibition on bovine neutrophils; 10 ng/ml analogue 2 h at 4 C, wash, then 1 ug/ml biotCXCL8; ELISA read-out.

Several values for one entry are separate records, joined by “and”; a condition that tells them apart may be missing. Equal entries are not always repeated.

In turn, “CXCL8 (wild type, unlabeled) (from UniProt P79255 23-101) (ligand)” had an IC50 in assay [1] of 0.12 nM. Moreover, in assay [2], the percent of biotCXCL8 binding inhibited came to 30%.

In turn, “125I-CXCL8 (from UniProt P79255 23-101) (ligand)” showed a concentration that just saturated the high affinity receptors in assay [3] of 20 pM.

For the molecule “biotinylated CXCL8 (from UniProt P79255 23-101) (ligand)”, the OD405 in assay [4] lay in the range of 0.5 to 0.6 OD405.

B1: bovine CXCL8(3-74)K11R/G31P (ligand)
chain: TELRCQCIRTHSTPFHPKFIKELRVIESPPHCENSEIIVKLTNGNEVCLNPKEKWVQKVVQVFVKRAEKQDP
Turning to B1, in assay [5], the IC50, inhibition of bovine neutrophil chemotaxis to 1 ug/ml (129 nM) CXCL8 was found to be 0.11 nM; the concentration for complete blocking of bovine neutrophil chemotaxis to 1 ug/ml CXCL8 came to 10 nM; the concentration for complete inhibition of bovine neutrophil chemotaxis to human CXCL5, CXCL1 or CXCL8 was 3 nM and 20 nM; the concentration reducing by 50% the bovine neutrophil chemotactic response to 10 ng/ml human CXCL8 came out at 0.04 nM. In assay [5], the concentration reducing to 50% the bovine neutrophil chemotactic response to 1 ng/ml human CXCL1 was determined as 0.26 nM, the concentration reducing to 50% the bovine neutrophil chemotactic response to 1 ng/ml human CXCL5 was 0.06 nM and the reduction of the chemotactic response of bovine neutrophils to 1 ug/ml (129 nM) CXCL8 by 12.9 pM analogue was 33%. Also, the half-inhibitory concentration (IC50) in assay [1] is 0.004 nM. In addition, the fold more effective than wildtype CXCL8 in inhibiting 125I-CXCL8 binding in assay [6] was 100 fold. In addition, the percent of subsequent biotCXCL8 binding blocked in assay [7] was found to be 95%.

B2: bovine CXCL8(3-74)K11R/P32G (ligand)
chain: TELRCQCIRTHSTPFHPKFIKELRVIESGGHCENSEIIVKLTNGNEVCLNPKEKWVQKVVQVFVKRAEKQDP
On to B2, for which the percent of CXCL8 binding blocked in assay [7] turned out to be 48%.
